The source of these data is the supplement of paper PMC9112550, “Optimization of the antimicrobial peptide Bac7 by deep mutational scanning” (BMC Biology, 2022).
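Further: peptides expressed intracellularly from a pBAD plasmid library in pooled LB shake-flask culture, induced with 0.3% L-arabinose, DNA abundance read by NGS, three biological replicates, DESeq2 with apeglm shrinkage.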

This series deals with Escherichia coli TOP10. The series can be described thus: shrunken log2 fold change of peptide-encoding DNA abundance (4.5 h post-induction vs induction); higher = less antimicrobial activity (less host growth inhibition). Particulars: time post-induction: 4.5 h; library: site-saturation at positions 5, 18, 19, 20.
For RRIRKRPPRLPRPRPRPKSCPRP, the “shrunken log2 fold change” value amounted to 0.00967.
The value for RRIRKRPPRLPRPRPRPFTCPRP was 0.182.
The value for RRIRTRPPRLPRPRPRPPVGPRP was 1.18; that for RRIRFRPPRLPRPRPRPEVQPRP was 0.00737.
Under RRIRPRPPRLPRPRPRPCNCPRP stands -0.107; under RRIRERPPRLPRPRPRPTLPPRP, 0.123; under RRIRMRPPRLPRPRPRPHACPRP, -0.0695.
As for RRIRSRPPRLPRPRPRPHYWPRP, the “shrunken log2 fold change” value was -0.519.
Regarding RRIRDRPPRLPRPRPRPDETPRP, the “shrunken log2 fold change” value was 0.0461.
Under RRIRERPPRLPRPRPRPVLPPRP stands -0.0942; under RRIRARPPRLPRPRPRPIISPRP, -0.129; under RRIRGRPPRLPRPRPRPGTYPRP, -0.201.
Under RRIRQRPPRLPRPRPRPNVCPRP stands -0.575; under RRIRDRPPRLPRPRPRPMCDPRP, 0.0645; under RRIRFRPPRLPRPRPRPFCHPRP, -0.433.
The value for RRIRSRPPRLPRPRPRPDNGPRP was -0.232.
Consider RRIRDRPPRLPRPRPRPDKTPRP, for which the “shrunken log2 fold change” value is 0.0138.
Under RRIRSRPPRLPRPRPRPDINPRP stands -0.253; under RRIRLRPPRLPRPRPRPGIQPRP, -0.0773.
Under RRIRGRPPRLPRPRPRPEETPRP stands 1.51; under RRIRPRPPRLPRPRPRPDLSPRP, 0.158; under RRIRTRPPRLPRPRPRPWLEPRP, 0.218.
Under RRIRIRPPRLPRPRPRPQLCPRP stands -0.222.
As for RRIRSRPPRLPRPRPRPGWSPRP, the “shrunken log2 fold change” value came out at 0.334.
The value for RRIRHRPPRLPRPRPRPASWPRP was 0.305; that for RRIRIRPPRLPRPRPRPSYHPRP was -0.933; that for RRIRCRPPRLPRPRPRPPWMPRP was 0.248.
Under RRIRGRPPRLPRPRPRPWFSPRP stands -0.246.
The value for RRIRMRPPRLPRPRPRPGPVPRP was 1.14; that for RRIRDRPPRLPRPRPRPMTEPRP was 0.0462.
For the sequence RRIRHRPPRLPRPRPRPMPLPRP, the “shrunken log2 fold change” value is -0.0217.
Take RRIRNRPPRLPRPRPRPGIEPRP: the “shrunken log2 fold change” value is -0.0795.
Under RRIRMRPPRLPRPRPRPVHWPRP stands 0.155.
RRIRTRPPRLPRPRPRPRIDPRP: the “shrunken log2 fold change” value is -0.0699.
As to RRIRNRPPRLPRPRPRPMLMPRP, the “shrunken log2 fold change” value was -0.0217.
Under RRIRGRPPRLPRPRPRPGQLPRP stands 0.178; under RRIRFRPPRLPRPRPRPGWSPRP, 0.114; under RRIRRRPPRLPRPRPRPWKGPRP, -0.209.
Under RRIRSRPPRLPRPRPRPNNAPRP stands -0.38.
The value for RRIRIRPPRLPRPRPRPQNSPRP was -0.595; that for RRIRRRPPRLPRPRPRPVCQPRP was 0.179.
On to RRIRNRPPRLPRPRPRPMLCPRP, for which the “shrunken log2 fold change” value stood at 0.0164.
Under RRIRCRPPRLPRPRPRPFQAPRP stands 0.0554.
Turning to RRIRVRPPRLPRPRPRPGHAPRP, the “shrunken log2 fold change” value is 0.245.
The value for RRIRYRPPRLPRPRPRPDIKPRP was -0.602.
Under RRIRMRPPRLPRPRPRPYCPPRP stands -0.066; under RRIRHRPPRLPRPRPRPKFEPRP, -0.125.
The value for RRIRLRPPRLPRPRPRPCTDPRP was -0.199.
Take RRIRKRPPRLPRPRPRPQIFPRP: the “shrunken log2 fold change” value was -0.0259.
RRIRERPPRLPRPRPRPLMSPRP: the “shrunken log2 fold change” value is -0.406.
